This is an account of results in patent US20250127877A1 (University of Washington, published 2025).

The test has as its target TH-A/New Caledonia/20/1999_2GCN_dn5b (203L/210D/212V/216I) (influenza A virus A/New …). Kind of test: in vitro nanoparticle assembly, purified nanoparticles seen by cryo-EM.

B1: I53_dn5A.1 (other)
chain: MGKYDGSKLRIGILHARGNAEIILALVLGALKRLQEFGVKRENIIIETVPGSFELPYGSKLFVEKQKRLGKPLDAIIPIGVLIRGSTPHFDYIADSTTHQLMKLNFELGIPVIFGVITADTDEQAEARAGLIEGKMHNHGEDWGAAAVEMATKFN
On to B1, for which the binding result is reported as “binds”.
